Laboratory results from paper PMC8551067 (Biochemistry, 2021).
Residue numbers refer to the chain shown, from its start. Numbers in names are those of the source.

B1: PvCPS (full-length copalyl diphosphate synthase) (Talaromyces verruculosus; H786A) (protein)
chain: MSPMDLQESAAALVRQLGERVEDRRGFGFMSPAIYDTAWVSMISKTIDDQKTWLFAECFQYILSHQLEDGGWAMYASEIDAILNTSASLLSLKRHLSNPYQITSITQEDLSARINRAQNALQKLLNEWNVDSTLHVGFEILVPALLRYLEDEGIAFAFSGRERLLEIEKQKLSKFKAQYLYLPIKVTALHSLEAFIGAIEFDKVSHHKVSGAFMASPSSTAAYMMHATQWDDECEDYLRHVIAHASGKGSGGVPSAFPSTIFESVWPLSTLLKVGYDLNSAPFIEKIRSYLHDAYIAEKGILGFTPFVGADADDTATTILVLNLLNQPVSVDAMLKEFEEEHHFKTYSQERNPSFSANCNVLLALLYSQEPSLYSAQIEKAIRFLYKQFTDSEMDVRDKWNLSPYYSWMLMTQAITRLTTLQKTSKLSTLRDDSISKGLISLLFRIASTVVKDQKPGGSWGTRASKEETAYAVLILTYAFYLDEVTESLRHDIKIAIENGCSFLSERTMQSDSEWLWVEKVTYKSEVLSEAYILAALKRAADLPDENAEAAPVINGISTNGFEHTDRINGKLKVNGTNGTNGSHETNGINGTHEIEQINGVNGTNGHSDVPHDTNGWVEEPTAINETNGHYVNGTNHETPLTNGISNGDSVSVHTDHSDSYYQRSDWTADEEQILLGPFDYLESLPGKNMRSQLIQSFNTWLKVPTESLDVIIKVISMLHTASLLIDDIQDQSILRRGQPVAHSIFGTAQAMNSGNYVYFLALREVQKLQNPKAISIYVDSLIDLARGQGMELFWRDSLMCPTEEQYLDMVANKTGGLFCLAIQLMQAEATIQVDFIPLVRLLGIIFQICDDYLNLKSTAYTDNKGLCEDLTEGKFSFPIIHSIRSNPGNRQLINILKQKPREDDIKRYALSYMESTNSFEYTRGVVRKLKTEAIDTIQGLEKHGLEENIGIRKILARMSLEL
B2: PvCPS (full-length copalyl diphosphate synthase) (Talaromyces verruculosus; F760A) (protein)
chain: B1 chain with F760A, A786H
B3: PvCPS (full-length copalyl diphosphate synthase) (Talaromyces verruculosus; S723F) (protein)
chain: B1 chain with S723F, A786H
B4: PvCPS (full-length copalyl diphosphate synthase) (Talaromyces verruculosus; S723T) (protein)
chain: B1 chain with S723T, A786H

Assays:
[1] = target: S723F-PvCPS-α (prenyltransferase α domain of copalyl diphosphate synthase from Penicillium verruculosum, S723F variant) (Penicillium verruculosum); assay: crystal structure
[2] = target: PvCPS (full-length copalyl diphosphate synthase) (Talaromyces verruculosus, UniProt A0A348FUE1, S723T); conditions: substrate inhibition constant; 1 mM DMAPP, 1 mM MgCl2, pH 7.5
purified protein = substrate: C=C(C)CCO[P@@](=O)(O)OP(=O)(O)O; assay: purified protein; conditions: prenyltransferase activity, 1 mM DMAPP, 1 mM MgCl2, pH 7.5

Sequence of PvCPS (full-length copalyl diphosphate synthase) (A0A348FUE1 whole entry S723T): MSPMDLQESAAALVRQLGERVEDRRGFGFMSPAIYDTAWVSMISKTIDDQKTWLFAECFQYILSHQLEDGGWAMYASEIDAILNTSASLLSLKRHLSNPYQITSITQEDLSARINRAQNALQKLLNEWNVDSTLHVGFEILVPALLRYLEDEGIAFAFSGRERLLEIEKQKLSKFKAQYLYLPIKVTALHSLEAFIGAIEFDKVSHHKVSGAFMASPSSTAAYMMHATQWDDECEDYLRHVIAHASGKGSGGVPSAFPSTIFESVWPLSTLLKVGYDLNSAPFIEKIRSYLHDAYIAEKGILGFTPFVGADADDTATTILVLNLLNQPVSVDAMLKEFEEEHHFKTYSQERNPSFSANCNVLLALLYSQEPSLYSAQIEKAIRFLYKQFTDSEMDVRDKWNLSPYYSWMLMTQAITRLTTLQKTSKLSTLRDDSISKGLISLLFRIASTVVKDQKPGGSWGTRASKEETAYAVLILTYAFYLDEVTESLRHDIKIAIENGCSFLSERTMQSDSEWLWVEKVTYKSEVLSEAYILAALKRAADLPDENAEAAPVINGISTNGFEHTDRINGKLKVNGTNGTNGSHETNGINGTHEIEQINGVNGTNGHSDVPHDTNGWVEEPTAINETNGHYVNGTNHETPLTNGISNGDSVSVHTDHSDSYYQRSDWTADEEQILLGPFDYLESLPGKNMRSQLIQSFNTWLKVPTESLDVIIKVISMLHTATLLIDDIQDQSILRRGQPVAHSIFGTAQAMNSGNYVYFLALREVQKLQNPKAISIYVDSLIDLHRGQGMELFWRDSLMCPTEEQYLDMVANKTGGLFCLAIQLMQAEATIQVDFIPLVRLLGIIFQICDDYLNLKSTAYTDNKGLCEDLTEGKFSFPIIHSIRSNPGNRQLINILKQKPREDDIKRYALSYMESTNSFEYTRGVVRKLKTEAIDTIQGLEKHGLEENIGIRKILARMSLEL

| Molecule | stoichiometry N [1] | S723T [2] | Km (purified protein) | kcat (purified protein) | kcat/Km (purified protein) |
| --- | --- | --- | --- | --- | --- |
| S723F-PvCPS-α (prenyltransferase α domain of copalyl diphosphate synthase from Penicillium verruculosum, S723F variant) (domain or fragment) | 6 | – | – | – | – |
| C=C(C)CCOP(=O)(O)OP(=O)(O)O [isopentenyl diphosphate] | – | 700 ± 100 µM | – | – | – |
| B1 | – | – | 160 ± 10 µM | 0.027 s⁻¹ | 170 M⁻¹ s⁻¹ |
| B2 | – | – | 38 ± 1 µM | 0.0279 s⁻¹ | 740 M⁻¹ s⁻¹ |
| B3 | – | – | 50 ± 10 µM | 0.11 s⁻¹ | 2200 M⁻¹ s⁻¹ |
| B4 | – | – | 36 ± 3 µM | 0.051 s⁻¹ | 1400 M⁻¹ s⁻¹ |
